# B1: Azoarcus group I ribozyme (parent)
# chain: GUGCCUUGCGCCGGGAAACCACGCAAGGGAUGGUGUCAAAUUCGGCGAAACCUAAGCGCCCGCCCGGGCGUAUGGCAACGCCGAGCCAAGCUUCGGCGCCUGCGCCGAUGAAGGUGUAGAGACUAGACGGCACCCACCUAAGGCAAACGCUAUGGUGAAGGCAUAGUCCAGGGAGUGGCGAAAGUCACACAAACCGG
# Variants of: B1
# Assay: reverse-splicing fitness (ratio to wild type); higher = more active; in vitro selection; Mg2+ level not given
# Outline: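 An in vitro group I ribozyme library with randomized positions was T7-transcribed and gel-purified. In triplicate, 10 pmol RNA in EPPS pH 7.5 was reacted with 50 pmoles of a 30-nt RNA substrate for 1 h at 37 °C across several added MgCl2 levels (1–48 mM), then stopped with EDTA. Products were reverse transcribed from a substrate-complementary primer, PCR-amplified and sequenced (HiSeq 4000). Fitness is a variant's read proportion after selection over that before, normalised to wild type.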
row,Variant,reverse-splicing fitness
1,C82A A111U U176A,0.0911
2,C82A A111U U176C,0.158
3,C82A A111U U176G,0.026
4,C82A A111U A145G U176A,0.0978
5,C82A A111U A145G U176G,0.0224
6,C82A A111U A145G U176C,0.151
7,C82A A120C A145C C150A C169U U176C,0.0111
8,C82A A120C A145C C150A C169U U176G,0.00481
9,C82A A120C A145C C150A C169U U176A,0.0144
10,C82A A120C A145C,0.124
11,C82A A111U A145U U176A,0.0937
12,C82A A111U A145U U176G,0.0281
13,C82A A111U A145U U176C,0.134
14,C82A A111U A145U,0.289
15,C82A A111U A145U C150A C169U U176C,0.0127
16,C82A A111U A145U C150A C169U U176G,0.00771
17,C82A A111U A145U C150A C169U U176A,0.0147
18,C82A A120C A145C C150A,0.0144
19,C82A A120C A145C C150G,0.0192
20,C82A A111U C150A,0.0266
21,C82A A111U C150G,0.0198

row,Variant,reverse-splicing fitness
1,C82A A111U C150U,0.135
2,C82A A111U A145U C150U C169U U176G,0.00717
3,C82A A111U A145U C150U C169U U176A,0.0147
4,C82A A111U A145U C150U C169U U176C,0.0143
5,C82A A111U A145U C150U C169G U176A,0.0142
6,C82A A111U A145U C150U C169G U176C,0.0156
7,C82A A111U A145U C150U C169G U176G,0.00663
8,C82A A111U A145G C169U,0.0129
9,C82A A111U A145G C169A,0.0104
10,C82A A111U A145G C169G,0.0102
11,C82A A111U A145U C150U C169A,0.00985
12,C82A A111U A145U C150U C169U,0.0124
13,C82A A111U A145U C150U C169G,0.00969
14,C82A A111U C150U C169G U176A,0.0151
15,C82A A111U C150U C169G U176C,0.0182
16,C82A A111U C150U C169G U176G,0.00649
17,C82A A111U A145U C150G C169A,0.00877
18,C82A A111U A145U C150G C169U,0.00971
19,C82A A111U A145U C150G C169G,0.00819
20,C82A A111U C169G U176G,0.00658
21,C82A A111U C169G U176A,0.0162

row,Variant,reverse-splicing fitness
1,C82A A111U C169G U176C,0.0258
2,C82A A111U C169A U176C,0.0202
3,C82A A111U C169A U176G,0.00595
4,C82A A111U C169A U176A,0.0172
5,C82A A111U C150G C169U U176G,0.00599
6,C82A A111U C150G C169U U176A,0.00699
7,C82A A111U C150G C169U U176C,0.0139
8,C82A A111U A145U C150U,0.181
9,C82A A111U A145U C150G,0.0256
10,C82A A111U A145U C150A,0.0253
11,C82A A111U A145U C150A U176C,0.0251
12,C82A A111U A145U C150A U176G,0.00989
13,C82A A111U A145U C150A U176A,0.018
14,C82A A111U A145U C150U C169A U176G,0.00727
15,C82A A111U A145U C150U C169A U176C,0.0108
16,C82A A111U A145U C150U C169A U176A,0.0148
17,C82A A120C A145C C150G C169A U176A,0.0105
18,C82A A120C A145C C150G C169A U176G,0.00632
19,C82A A120C A145C C150G C169A U176C,0.00816
20,C82A A111U C150A C169U U176G,0.00835
21,C82A A111U C150A C169U U176C,0.0171

row,Variant,reverse-splicing fitness
1,C82A A111U C150A C169U U176A,0.0167
2,C82A A120C A145C C150G C169A,0.00891
3,C82A A111U C150A C169G U176A,0.0202
4,C82A A111U C150A C169G U176G,0.00794
5,C82A A111U C150A C169G U176C,0.0266
6,C82A A111U C150G C169U,0.0101
7,C82A A111U C150G C169A,0.00953
8,C82A A111U C150G C169G,0.00756
9,C82A A111U A145U C150A C169G,0.00786
10,C82A A111U A145U C150A C169A,0.0092
11,C82A A111U A145U C150A C169U,0.0108
12,C82A A120C,0.144
13,C82A A111U A145U C169U U176C,0.0139
14,C82A A111U A145U C169U U176A,0.0142
15,C82A A111U A145U C169U U176G,0.00541
16,C82A A111U C150A C169A U176C,0.0197
17,C82A A111U C150A C169A U176G,0.00811
18,C82A A111U C150A C169A U176A,0.0188
19,C82A A111U C150G U176C,0.015
20,C82A A111U C150G U176G,0.00369
21,C82A A111U C150G U176A,0.00718

# — the RNAGym collection of RNA variant scans (doi:10.1093/molbev/msab373)
